How the values were obtained:
ADAM17 [1] = test: Soluble CD16b released from transfected HEK293 cells, ELISA of media supernatant (shedding); format: cell-based, human
Description: (§1) FIG. 3. Effects of the engineered S197P mutation on CD16a and CD16b shedding. Transfected HEK293 (human embryonic kidney) cells separately expressed CD16b and CD16b/S197P (A) or CD16a and CD16a/S197P (B) at similar levels, as determined by flow cytometry (left panels). The different transfectants were treated with or without PMA (15 ng/ml for 30 minutes at 37° C.) and soluble levels of CD16 in the media supernatant were quantified by ELISA (right panels). Each treatment condition was repeated three times for each experiment and the data are representative of three independent experiments. Bar graphs show mean±SD. Statistical significance is indicated as ***P<0.001. (C) Transfected HEK293 cells expressed L-selectin (CD62L) or L-selectin and CD16b/S197P. Surface levels of L-selectin and CD16b/S197P on transfected and mock-transfected cells were measured using flow cytometry (histogram plots). Transfectants expressing L-selectin or L-selectin and CD16b/S197P were incubated in the presence or absence of PMA for 30 minutes at 37° C., and the mean fluorescence intensity (MFI) of L-selectin staining determined (bar graph). Each treatment condition was repeated three times for each experiment and the data are representative of two independent experiments. Bar graphs show mean±SD. Statistical significance is indicated as *P<0.05. For all histogram plots, the x-axis=Log 10 fluorescence and the y-axis=cell number.
HEK293 cells (a human embryonic kidney cell line) and NK92 cells (a human NK cell line) (ATCC, Manassas, Va.) were cultured according to the depository's instructions. HEK293 cells were transiently transfected with pcDNA3.1 with or without CD16b, CD16b/S197P, and/or L-selectin using Lipofectamine 2000 (Invitrogen, Carlsbad, Calif.) according to the manufacturer's instructions. HEK293 cells stably expressing human FcRγ were transiently transfected with pcDNA3.1 with or without CD16a or CD16a/S197P by the same approach. NK92 cells were stably transduced with pBMN-IRES-EGFP with or without CD16a or CD16a/S197P by retrovirus generation and infection procedures described previously (Matala et al., 2001, J Immunol. 167:1617-1623; Walcheck et al., 2003, J Leukoc Biol. 74:389-394; Wang et al., 2009, J Immunol. 182:2449-2457). Construct expression was assessed by EGFP fluorescence and CD16 staining, as determined by flow cytometry. Human iPSCs (UCBiPS7, derived from umbilical cord blood CD34 cells) were maintained on mouse embryonic fibroblasts (Knorr et al., 2013, Stem Cells Transl Med. 2:274-283; Ni et al., 2014, Stem Cells 32:1021-1031). Stable expression of CD16a or CD16a/S197P was performed using a Sleeping Beauty transposon system as previously described (Wilber et al., 2007, Stem Cells 25:2919-2927; Tian et al., 2009, Stem Cells 27:2675-2685). […]

ADAM17 [2] = test: L-selectin surface down-regulation in HEK293 transfectants expressing or lacking CD16b/S197P (ADAM17 activity control); format: cell-based, human; settings: HEK293 cells expressing versus lacking CD16b/S197P; PMA 30 minutes at 37° C.
Description: as §1, with “(C) Transfected HEK293 cells expressed L-selectin (CD62L) or L-selectin and CD16b/S197P.” left out, “Each treatment condition was repeated three times for each experiment and the data are representative of two independent experiments. Bar graphs show mean±SD. Statistical significance is indicated as *P<0.05.” left out
HEK293 cells (a human embryonic kidney cell line) and NK92 cells (a human NK cell line) (ATCC, Manassas, Va.) were cultured according to the depository's instructions. […] Construct expression was assessed by EGFP fluorescence and CD16 staining, as determined by flow cytometry. […]

[3] = HEK293 transfectants treated with PMA 15 ng/ml for 30 minutes at 37° C.
[4] = untreated transfected HEK293 cells

Molecule	soluble levels of CD16 in media supernatant (ADAM17 [1]; [3])	soluble levels of CD16 in media supernatant (ADAM17 [1]; [4])	L-selectin down-regulation following activation with PMA (ADAM17 [2])
CD16b: Wild-type human IgG Fc receptor CD16b (FcγRIIIb), NA1 allelic variant, recombinant comparator (protein, listed as Homo sapiens) MWQLLLPTALLLLVSAGMRTEDLPKAVVFLEPQWYRVLEKDSVTLKCQGAYSPEDNSTQWFHNENLISSQASSYFIDAATVDDSGEYRCQTNLSTLSDPVQLEVHVGWLLLQAPRWVFKEEDPIHLRCHSWKNTALHKVTYLQNGKDRKYFHHNSDFHIPKATLKDSGSYFCRGLVGSKNVSSETVNITITQGLAVSTISSFS	increased further	High levels	–
CD16b/S197P: Human CD16b (FcγRIIIb, SEQ ID NO:2, NA1 variant) with serine-197 substituted by proline; expressed in HEK293 cells (protein, listed as Homo sapiens) MWQLLLPTALLLLVSAGMRTEDLPKAVVFLEPQWYRVLEKDSVTLKCQGAYSPEDNSTQWFHNENLISSQASSYFIDAATVDDSGEYRCQTNLSTLSDPVQLEVHVGWLLLQAPRWVFKEEDPIHLRCHSWKNTALHKVTYLQNGKDRKYFHHNSDFHIPKATLKDSGSYFCRGLVGSKNVSSETVNITITQGLAVPTISSFS	markedly lower	markedly lower	similarly down-regulated
